One molecule from patent publication US7211422B2, “Polypeptide having α-isomaltosylglucosaccharide synthase activity” (Kabushiki Kaisha Hayashibara Seibutsu Kagaku Kenkyujo, priority 2001, dated 2007) can be followed below.

The nature of data set [1]: Thermal stability and pH stability (residual enzyme activity). It counts as physicochemical. The note with it: 20 mM Glycine-NaOH buffer pH 8.0, 60 minutes. The protocol:
The thermal stability of the polypeptide having α-isomaltosylglucosaccharide-forming enzyme activity was determined by incubating the testing polypeptide solution in 20 mM acetate buffer, pH6.0 (in the case of the polypeptide from a strain A19, 20 m M Glycine-NaOH buffer, pH 8.0) at prescribed temperatures for 60 minutes in the presence or absence of 1 mM Ca^2+, cooling with water the resulting polypeptide solutions, and assaying the residual enzyme activity of each solution. The pH stability of the polypeptide having α-isomaltosylglucosaccharide-forming enzyme activity was determined by keeping the testing polypeptide solutions in 50 mM buffer having prescribed pHs at 4° C. for 24 hours, adjusting the pH of each solution to 6.0 (in the case of the polypeptide from a strain A19, pH 8.0), and assaying the residual enzyme activity of each solution. […] The thermal stability of the polypeptide having α-isomaltosylglucosaccharide-forming enzyme activity from a strain C11 was up to about 40° C. (in the absence of Ca^2+) and about 45° C. (in the presence of Ca^2+), and pH stability of about 5.0 to about 10.0. The thermal stability of the polypeptide having α-isomaltosylglucosaccharide-forming enzyme activity from a strain N75 was up to about 45° C. (in the absence of Ca^2+) and about 50° C. (in the presence of Ca^2+), and pH stability of about 5.0 to about 9.0. The thermal stability of the polypeptide having α-isomaltosylglucosaccharide-forming enzyme activity from a strain A19 was up to about 55° C. (in the absence of Ca^2+) and about 60° C. (in the presence of Ca^2+), and pH stability of about 5.0 to about 9.0.

The nature of data set [2]: Test on reducing-power formation. It counts as biochemical. The note with it: 1% (w/v) maltotetraose, 0.25 unit/g substrate, 35° C., pH 6.0 (pH 8.4 for A19). On the procedure: The following test was carried out to study whether the polypeptide having α-isomaltosylglucosaccharide-forming enzyme activity had the ability of forming reducing-power or not. To a 1% (w/v) aqueous solution of maltotetraose as a substrate was added 0.25 unit/g substrate, d.s.b., of either of purified polypeptide specimen of α-isomaltosylglucosaccharide-forming enzyme from Bacillus globisporus C11 obtained by the method in Experiment 1-3, Bacillus globisporus N75 obtained by the method in Experiment2-3, or Arthrobacter globiformis A19 obtained by the method in Experiment 3-3, and incubated at 35° C. and at pH 6.0, except that pH 8.4 was used for the enzyme from Arthrobacter globiformis A19. During the reaction, a portion of each reaction mixture was sampled at prescribed time intervals and measured for reducing power after keeping at 100° C. for 10 minutes to stop the enzymatic reaction. Before and after the enzymatic reaction, the reducing sugar content and total sugar content were respectively quantified by the Somogyi-Nelson method and anthrone-sulfuric acid method. The percentage of forming reducing power was calculated by the following equation: Percentage of forming reducing power (%)=(AR/AT−BR/BT)×100 Equation: • AR: Reducing sugar content after enzymatic reaction. • AT: Total sugar content after enzymatic reaction. • BR: Reducing sugar content before enzymatic reaction. • BT: Total sugar content before enzymatic reaction.

Data set [3] in a line: Isoelectric point by isoelectrophoresis (2% ampholine gel). It is filed as physicochemical. Conditions: gel containing 2% (w/v) ampholine. An excerpt: Purified specimens of the polypeptide having α-isomaltosylglucosaccharide-forming enzyme activity from Bacillus globisporus C11 obtained by the method in Experiment 1-3, Bacillus globisporus N75 obtained by the method in Experiment 2–3, and Arthrobacter globiformis A19 obtained by the method in Experiment 3-3 were subjected to isoelectrophoresis using a gel containing 2% (w/v) ampholine commercialized by Amersham Biosciences K. K., Tokyo, Japan (old name, Amersham Pharmacia Biotech), and then measured pHs of protein bands and gel to determine their isoelectric points.

The nature of data set [4]: Effect of temperature and pH on α-isomaltosylglucosaccharide-forming enzyme activity. It counts as biochemical. The note with it: for Optimum temperature: pH 8.4 for 60 minutes. The protocol:
The two types of enzymatic activities described above were measured as following. The activity of α-isomaltosylglucosaccharide-forming enzyme was measured by the following assay: A substrate solution was prepared by dissolving maltotriose in 100 mM acetate buffer (pH 6.0) to give a concentration of 2% (w/v). A reaction mixture was prepared by mixing 0.5 ml of the substrate solution and 0.5 ml of an enzyme solution, and incubated at 35° C. for 60 minutes. After stopping the reaction by boiling for 10 minutes, the amount of maltose formed in the reaction mixture was determined by high-performance liquid chromatography (HPLC). One unit of α-isomaltosylglucosaccharide-forming activity was defined as the amount of the enzyme that forms one μmole of maltose per minute under the above conditions. HPLC was carried out using “SHODEX KS-801 column”, Showa Denko K. K., Tokyo, Japan, at a column temperature of 60° C. and a flow rate of 0.5 ml/minutes of water, and using “RI-8012”, a differential refractometer commercialized by Tosoh Corporation, Tokyo, Japan.
The effect of temperature and pH on the α-isomaltosylglucosaccharide-forming enzyme activity was examined in accordance with the assay for the α-isomaltosylglucosaccharide-forming enzyme activity under various temperature and pH conditions. The effect of temperature was conducted in the presence or absence of 1 mM Ca^2+. […] The optimum temperature of the polypeptide having α-isomaltosylglucosaccharide-forming enzyme activity from a strain C11 was about 45° C. (in the absence of Ca^2+) and about 50° C. (in the presence of Ca^2+) when incubated at pH 6.0 for 60 minutes, and the optimum pH was about 6.0 when incubated at 35° C. for 60 minutes. The optimum temperature of the polypeptide having α-isomaltosylglucosaccharide-forming enzyme activity from a strain N75 was about 50° C. (in the absence of Ca^2+) and about 55° C. (in the presence of Ca^2+) when incubated at pH 6.0 for 60 minutes, and the optimum pH was about 6.0 when incubated at 35° C. for 60 minutes. The optimum temperature of the polypeptide having α-isomaltosylglucosaccharide-forming enzyme activity from a strain A19 was about 60° C. (in the absence of Ca^2+) and about 65° C. (in the presence of Ca^2+) when incubated at pH 8.4 for 60 min, and the optimum pH was about 8.4 when incubated at 35° C. for 60 minutes.

B1: Enzyme of Strain A19: purified polypeptide having α-isomaltosylglucosaccharide-forming enzyme activity from Arthrobacter globiformis A19 (Experiment 3-3); contains SEQ ID NO: 3 (protein)
chain: APLGVQRAQFQSGSSYLVVEVLDDDLVHFELAGGGTAPGTGSPLFTTPQVAKHDYAGPDVFTQTGSVLQTAAMRIEVDPADLCVTATDITRTPNLVLHEACPADLGQAWKGLNITRSAMENAYGLGQQFFTGGSADGDWVGRTRTPGGTYGNAMVFDPENGPVGNTQIPVLFAVGDDNANYGLFVDQLYKQEWNLTGDPWTVRMWGDQVRWYLMSGDDLPDLRHDYMELTGTPPVPPKKAFGLWVSEFGYDNWSEVDNTIAGLRSADFPVDGAMLDVQWFGGVTADSDDTRMGTLDWDTSRFPDPAGKIADLAEDGVGIIPIEESYVGRNLPEHARMAADGYLVRSGCATCPPVYLTGNPWWGKGGMIDWTQPEAGAVWHDEQRQHLVDEGVLGHWLDLGEPEMYDPNDWTAGVIPGKHAHADYHNAYNLLWAQSIADGYADNGVQKRPFMLTRAAAAGIQRHGAGMWSADIGSTMKALGSQQNAQMHMSMSGIDYYGSDIGGFRREMADGDVNELYTQWFADSAWFDTPLRPHTDNLCNCLETSPDSIGDVASNRENLVRRYELAPYYYSLAHRAHQFGEPLAPPLVYYYQNDDHVREMGHQKMLGRDLLIAIVAGEGERERDVYLPAGEWIDIHTNERIQSTGQWIDNVPLWRDGVFTLPAYARAGAIIPKAFVDASTKDITGKREDAAVRNELIATVYADDVASDFTLYEDDGATTAYADGAVRTTQISQSLTNGVATVTVGAASGTYSGAPSTRPTVVELVTDGTQASTVSLGSVPLTEHANKAAFDAASSGWYNAGGGLVVAKAASSSVNTAKTFSFTLGEESVWATFSCENATTTFGQSVYVVGNVPQLGNWSPADAVKLEPSAYPTWTGVVRNLPPSSTVEWKCIKRQEAGLPNTADAWEPGGNNILSTPPSGSAGITTGAF
modifications: Arthrobacter globiformis A19
Take B1: the figures for the Thermal stability result in data set [1] (in the absence of Ca2+) and in data set [1] (in the presence of 1 mM Ca2+) were “up to 55 °C” and ≤ 60 °C, respectively. The “Percentage of forming reducing power” value in data set [2] (reaction time 0 hour) came out at 0.0%; in data set [2] (reaction time 1 hour) it was 0.0%; in data set [2] (reaction time 2 hours), 0.1%; in data set [2] (reaction time 4 hours), 0.0%; in data set [2] (reaction time 8 hours), 0.1%. Also, the Isoelectric point entry in data set [3] is reported as “about 4.3±0.5”. In addition, the Optimum temperature entry is “about 60 °C” in data set [4] (in the absence of Ca2+) and “about 65 °C” in data set [4] (in the presence of 1 mM Ca2+). The “Optimum pH” value in data set [4] (incubated at 35° C. for 60 minutes) is listed as “about 8.4”.
